Assay [1] addresses T1, recombinant biotinylated CD71 extracellular domain (Sino Biologics) with an N-terminal 6His tag (human, UniProt P02786 89-760, biotinylated (sites not given)).
T1 construct: extracellular domain; also called hCD71; huCD71
Kind of assay: screening ELISA. The method, then: (§1) To screen for FN3 domains that specifically bind CD71, streptavidin-coated Maxisorp plates (Nunc catalog 436110) were blocked for 1 hour in Starting Block T20 (Pierce) and then coated with biotinylated CD71 (using same antigen as in panning) or negative controls (an unrelated Fc-fused recombinant protein and human serum albumin) for 1 hour. Plates were rinsed with TBST and diluted lysate was applied to plates for 1 hour. Following additional rinses, wells were treated with HRP-conjugated anti-V5 tag antibody (Abcam, ab1325), for 1 hour and then assayed with POD (Roche, 11582950001).

Assay [2] concerns the target T1, recombinant biotinylated CD71 …. Kind of assay: screening ELISA, ratio. The method, then: as §1
(ELISA stands for enzyme-linked immunosorbent assay.)

Assay [3] deals with T2, CD71 on SK-BR-3 cells (human, UniProt P02786 1-760). Nature of the assay: cell-based or functional assay.
Assay [4] addresses T2, CD71 on SK-BR-3 cells. Nature of the assay: cell-based or functional assay. This is another data set of the same source.

The values that follow come from patent US20210145976A1 (ARO BIOTHERAPEUTICS, published 2021).

T1 sequence (P02786 other isoform, or with tags, fused parts or gaps): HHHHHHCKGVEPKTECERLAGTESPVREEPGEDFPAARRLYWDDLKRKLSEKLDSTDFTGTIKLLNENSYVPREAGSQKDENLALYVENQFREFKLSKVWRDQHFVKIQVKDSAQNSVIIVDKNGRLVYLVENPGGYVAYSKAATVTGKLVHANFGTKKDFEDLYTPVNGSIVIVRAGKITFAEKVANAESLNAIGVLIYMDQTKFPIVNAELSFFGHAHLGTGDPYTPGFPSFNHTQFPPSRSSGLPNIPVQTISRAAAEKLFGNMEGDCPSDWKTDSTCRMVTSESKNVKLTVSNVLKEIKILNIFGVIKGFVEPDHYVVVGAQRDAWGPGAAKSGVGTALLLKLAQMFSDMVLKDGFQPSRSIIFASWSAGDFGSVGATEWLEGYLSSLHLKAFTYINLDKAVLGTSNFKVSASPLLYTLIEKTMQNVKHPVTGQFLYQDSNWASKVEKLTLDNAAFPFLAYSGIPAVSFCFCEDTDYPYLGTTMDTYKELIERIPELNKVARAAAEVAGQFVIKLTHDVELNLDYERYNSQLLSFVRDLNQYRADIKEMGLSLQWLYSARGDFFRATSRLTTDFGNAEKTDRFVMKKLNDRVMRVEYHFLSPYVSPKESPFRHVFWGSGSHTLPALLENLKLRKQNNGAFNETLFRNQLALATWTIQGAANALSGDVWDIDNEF
T2 sequence (P02786 whole entry): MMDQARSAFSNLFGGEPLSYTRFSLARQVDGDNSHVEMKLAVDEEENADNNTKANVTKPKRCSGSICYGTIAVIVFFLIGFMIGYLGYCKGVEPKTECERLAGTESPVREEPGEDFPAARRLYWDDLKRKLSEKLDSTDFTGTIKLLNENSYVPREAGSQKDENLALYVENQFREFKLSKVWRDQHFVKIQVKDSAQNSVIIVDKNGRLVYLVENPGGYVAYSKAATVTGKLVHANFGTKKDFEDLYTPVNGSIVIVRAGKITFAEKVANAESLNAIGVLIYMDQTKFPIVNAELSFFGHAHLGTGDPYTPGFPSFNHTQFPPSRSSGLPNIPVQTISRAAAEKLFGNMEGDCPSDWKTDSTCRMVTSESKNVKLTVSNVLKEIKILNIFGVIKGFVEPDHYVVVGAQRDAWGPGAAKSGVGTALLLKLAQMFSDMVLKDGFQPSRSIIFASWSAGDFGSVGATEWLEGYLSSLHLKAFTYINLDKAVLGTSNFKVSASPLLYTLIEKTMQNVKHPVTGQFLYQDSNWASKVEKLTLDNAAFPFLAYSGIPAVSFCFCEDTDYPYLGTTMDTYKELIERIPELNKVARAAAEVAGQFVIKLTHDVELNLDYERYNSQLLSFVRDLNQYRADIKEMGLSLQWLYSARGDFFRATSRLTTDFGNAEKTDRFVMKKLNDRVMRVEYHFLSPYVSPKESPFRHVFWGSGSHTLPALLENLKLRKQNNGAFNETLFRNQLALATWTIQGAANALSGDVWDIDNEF

B1: SEQ ID NO 35 (designed binder)
chain: MLPAPKNLVVSRVTEDSARLSWTAPDAAFDSFEIAYFEAIWNGEAIYLTVPGSERSYDLTGLKPGTEYQVEIRGVKGGPTSRPLFAWFTT
notes: FN3 domain
Regarding B1, in assay [1], the hCD71 came to 3.24e+06. For the same molecule, the huCD71/Fc in assay [2] was found to be 2130. The “IC50, SKBR-3 cell viability, MMAF conjugate” value (“IC50, SKBR-3 cell viability” below) in assay [3] came out at 2.5 nM. Also, in assay [4], the “IC50, SK-BR3 viability, MMAF conjugate, no competitor” value (shortened to “IC50 … no competitor”) is 0.7 nM and the “IC50, SK-BR3 viability, MMAF conjugate, with 0.6 uM holo-human transferrin” value (“IC50 … with 0.6 uM holo-human transferrin” below) worked out at 41.5 nM.

B2: SEQ ID NO 37 (designed binder)
chain: MLPAPKNLVVSRVTEDSARLSWTAPDAAFDSFHIIYTEEEKEGEAIYLRVPGSERSYDLTGLKPGTEYLVEIEGVKGGKRSVPLNASFTT
notes: FN3 domain
For B2, the hCD71 in assay [1] is 1.27e+06. The huCD71/Fc in assay [2] is 467. Besides, the “IC50, SKBR-3 cell viability” value in assay [3] stood at 0.15 nM. In assay [4], the “IC50 … no competitor” value was 0.7 nM and the “IC50 … with 0.6 uM holo-human transferrin” value worked out at 143 nM.

B3: SEQ ID NO 54 (designed binder)
chain: MLPAPKNLVVSRVTEDSARLSWTAPDAAFDSFQILYQENAFEGEAIVLTVPGSERSYDLTGLKPGTEYWVYIYGVKGGYPSVPLSAIFTT
notes: FN3 domain
For B3, the hCD71 in assay [1] turned out to be 6.99e+06. The huCD71/Fc in assay [2] was 1130. Besides, the “IC50, SKBR-3 cell viability” value in assay [3] came to 0.4 nM. In addition, in assay [4], the “IC50 … no competitor” value came to 0.13 nM and the “IC50 … with 0.6 uM holo-human transferrin” value was 5 nM.

B4: SEQ ID NO 39 (designed binder)
chain: MLPAPKNLVVSRVTEDSARLSWTAPDAAFDSFDIDYREWWTLGEAIVLTVPGSERSYDLTGLKPGTEYYVNIQGVKGGLRSYPLSAIFTT
notes: FN3 domain
For the molecule B4, in assay [1], the hCD71 came to 507000. In addition, in assay [2], the huCD71/Fc came to 122. Moreover, the “IC50, SKBR-3 cell viability” value in assay [3] is 0.52 nM. In addition, in assay [4], the “IC50 … no competitor” value was found to be 1.2 nM and the “IC50 … with 0.6 uM holo-human transferrin” value was determined as 31.1 nM.

B5: SEQ ID NO 41 (designed binder)
chain: MLPAPKNLVISRVTEDSARLSWTAPDAAFDSFFIYYIESYPAGEAIVLTVPGSERSYDLTGLKPGTEYWVGIDGVKGGRWSTPLSAIFTT
notes: FN3 domain
As to B5, in assay [1], the hCD71 was 4.27e+06. In assay [2], the huCD71/Fc worked out at 423. Moreover, the “IC50, SKBR-3 cell viability” value in assay [3] came out at 4.7 nM. Besides, in assay [4], the “IC50 … no competitor” value amounted to 0.01 nM and the “IC50 … with 0.6 uM holo-human transferrin” value worked out at 0.5 nM.

B6: SEQ ID NO 43 (designed binder)
chain: MLPAPKNLVVSRVTEDSARLSWTAPDAAFDSFYIEYYESYPGGEAIVLTVPGSERSYDLTGLKPGTEYDVYIYGVKGGYWSRPLSAIFTT
notes: FN3 domain
As to B6, the hCD71 in assay [1] is 1.62e+06. In addition, the huCD71/Fc in assay [2] came out at 199. In addition, in assay [3], the “IC50, SKBR-3 cell viability” value came out at 0.069 nM. For the same molecule, in assay [4], the “IC50 … no competitor” value was 0.97 nM and the “IC50 … with 0.6 uM holo-human transferrin” value is approximately 80 nM.

B7: SEQ ID NO 40 (designed binder)
chain: MLPAPKNLVVSRVTEDSARLSWTAPDAAFDSFVIEYWEYVGHGEAIVLTVPGSERSYDLTGLKPGTEYSVGIYGVKGGSLSRPLSAIFTT
notes: FN3 domain
In the case of B7, the hCD71 in assay [1] was 220000. In addition, the huCD71/Fc in assay [2] was determined as 74.4. The “IC50, SKBR-3 cell viability” value in assay [3] is 3 nM. Besides, in assay [4], the “IC50 … no competitor” value stood at 2.2 nM and the “IC50 … with 0.6 uM holo-human transferrin” value was approximately 100 nM.

B8: SEQ ID NO 57 (designed binder)
chain: MLPAPKNLVVSRVTEDSARLSWTAPDAAFDSFSIKYLEWWQDGEAIVLTVPGSERSYDLTGLKPGTEYYVHIAGVKGGYRSYPLSAIFTT
notes: FN3 domain
Regarding B8, in assay [1], the hCD71 worked out at 1.9e+06. The huCD71/Fc in assay [2] was found to be 113. The “IC50, SKBR-3 cell viability” value in assay [3] amounted to 3.13 nM. Moreover, in assay [4], the “IC50 … no competitor” value was found to be 0.38 nM and the “IC50 … with 0.6 uM holo-human transferrin” value came out at 5.3 nM.

B9: SEQ ID NO 60 (designed binder)
chain: MLPAPKNLVVSRVTEDSARLSWTAPDAAFDSFTIWYAEAIGHGEAIVLTVPGSERSYDLTGLKPGTEYWVDIWGVKGGQQSKPLSAIFTT
notes: FN3 domain
Regarding B9, the hCD71 in assay [1] was 4.48e+06. The huCD71/Fc in assay [2] was found to be 691. For the same molecule, the “IC50, SKBR-3 cell viability” value in assay [3] amounted to 0.45 nM. In addition, in assay [4], the “IC50 … no competitor” value was 0.21 nM and the “IC50 … with 0.6 uM holo-human transferrin” value was 14.4 nM.

B10: SEQ ID NO 42 (designed binder)
chain: MLPAPKNLVVSRVTEDSARLSWTAPDAAFDSFTIEYYESFYGGEAIVLTVPGSERSYDLTGLKPGTEYYVSIYGVKGGWLSRPLSAIFTT
notes: FN3 domain
Turning to B10, the hCD71 in assay [1] is 2.83e+06. In assay [2], the huCD71/Fc is 478. In addition, the “IC50, SKBR-3 cell viability” value in assay [3] is 0.19 nM. Besides, in assay [4], the “IC50 … no competitor” value stood at 2.4 nM and the “IC50 … with 0.6 uM holo-human transferrin” value is approximately 70 nM.

B11: SEQ ID NO 46 (designed binder)
chain: MLPAPKNLVVSRVTEDSARLSWTAPDAAFDSFTIEYFEFTGTGEAIVLTVPGSERSYDLTGLKPGTEYYVSIYGVKGGLLSAPLSAIFTT
notes: FN3 domain
With B11, in assay [1], the hCD71 came out at 113000. For the same molecule, the huCD71/Fc in assay [2] was 37. In addition, in assay [3], the “IC50, SKBR-3 cell viability” value amounted to 2.69 nM. In assay [4], the “IC50 … no competitor” value came to 3 nM and the “IC50 … with 0.6 uM holo-human transferrin” value is approximately 100 nM.

B12: SEQ ID NO 55 (designed binder)
chain: MLPAPKNLVVSRVTEDSARLSWTAPDAAFDSFIIEYWEFVGYGEAIVLTVPGSERSYDLTGLKPGTEYWVAIYGVKGGDLSKPLSAIFTT
notes: FN3 domain
As to B12, in assay [1], the hCD71 was found to be 1.11e+07. In addition, the huCD71/Fc in assay [2] came to 1440. Moreover, in assay [3], the “IC50, SKBR-3 cell viability” value came out at 0.026 nM. Also, in assay [4], the “IC50 … no competitor” value is 0.15 nM and the “IC50 … with 0.6 uM holo-human transferrin” value is 5.5 nM.

B13: SEQ ID NO 53 (designed binder)
chain: MLPAPKNLVVSRVTEDSARLSWTAPDAAFDSFFISYIEWWDLGEAIVLTVPGSERSYDLTGLKPGTEYHVEIFGVKGGTQSYPLSAIFTT
notes: FN3 domain
Regarding B13, in assay [1], the hCD71 worked out at 1.01e+06. The huCD71/Fc in assay [2] came out at 110. Further, the “IC50, SKBR-3 cell viability” value in assay [3] stood at 0.07 nM. Besides, in assay [4], the “IC50 … no competitor” value came out at 3.6 nM and the “IC50 … with 0.6 uM holo-human transferrin” value was approximately 90 nM.

B14: SEQ ID NO 56 (designed binder)
chain: MLPAPKNLVVSRVTEDSARLSWTAPDAAFDSFVIEYFEALEGGEAIVLTVPGSERSYDLTGLKPGTEYFVGIYGVKGGPLSKPLSAIFTT
notes: FN3 domain
For B14, the hCD71 in assay [1] is 1.13e+07. Further, the huCD71/Fc in assay [2] worked out at 1510. The “IC50, SKBR-3 cell viability” value in assay [3] turned out to be 0.24 nM. Also, in assay [4], the “IC50 … no competitor” value stood at 0.35 nM and the “IC50 … with 0.6 uM holo-human transferrin” value stood at 14.7 nM.

B15: SEQ ID NO 47 (designed binder)
chain: MLPAPKNLVVSRVTEDSARLSWTAPDAAFDSFTIWYAEALGDGEAIVLTVPGSERSYDLTGLKPGTEYFVDIYGVKGGFWSLPLSAIFTT
notes: FN3 domain
As for B15, the hCD71 in assay [1] worked out at 265000. Moreover, in assay [2], the huCD71/Fc was determined as 50.9. Besides, in assay [3], the “IC50, SKBR-3 cell viability” value was 5.9 nM. In addition, in assay [4], the “IC50 … no competitor” value came to 1.6 nM and the “IC50 … with 0.6 uM holo-human transferrin” value was approximately 85 nM.

B16: SEQ ID NO 48 (designed binder)
chain: MLPAPKNLVVSRVTEDSARLSWTAPDAAFDSFVIEYFEQFNLGEAIVLTVPGSERSYDLTGLKPGTEYWVGIYGVKGGWLSHPLSAIFTT
notes: FN3 domain
Consider B16, for which, in assay [1], the hCD71 came to 943000. Further, the huCD71/Fc in assay [2] is 337. The “IC50, SKBR-3 cell viability” value in assay [3] stood at 0.42 nM. In addition, in assay [4], the “IC50 … no competitor” value stood at 1.3 nM and the “IC50 … with 0.6 uM holo-human transferrin” value is approximately 70 nM.

B17: SEQ ID NO 45 (designed binder)
chain: MLPAPKNLVVSRVTEDSARLSWTAPDAAFDSFAIYYLESYPEGEAIVLTVPGSERSYDLTGLKPGTEYWVGIDGVKGGTWSSPLSAIFTT
notes: FN3 domain
Regarding B17, the hCD71 in assay [1] came to 1.93e+06. Besides, the huCD71/Fc in assay [2] stood at 669. The “IC50, SKBR-3 cell viability” value in assay [3] was 8.3 nM. Moreover, in assay [4], the “IC50 … no competitor” value came out at 0.05 nM and the “IC50 … with 0.6 uM holo-human transferrin” value is 0.9 nM.

B18: SEQ ID NO 38 (designed binder)
chain: MLPAPKNLVVSRVTEDSARLSWTAPDAAFDSFHIAYEESHTTGEAIFLRVPGSERSYDLTGLKPGTEYSVSIEGVKGGHYSPPLTAKFTT
notes: FN3 domain
Turning to B18, in assay [1], the hCD71 was found to be 840000. Further, the huCD71/Fc in assay [2] was 202. In addition, in assay [3], the “IC50, SKBR-3 cell viability” value is 3.82 nM. Besides, in assay [4], the “IC50 … no competitor” value came to 4 nM and the “IC50 … with 0.6 uM holo-human transferrin” value was approximately 120 nM.

B19: SEQ ID NO 34 (designed binder)
chain: MLPAPKNLVVSRVTEDSARLSWTAPDAAFDSFAITYIEWWDVGEAIGLKVPGSERSYDLTGLKPGTEYRVHIQGVKGGNNSYPLDALFTT
notes: FN3 domain
With B19, the hCD71 in assay [1] amounted to 310000. Further, the huCD71/Fc in assay [2] is 12. The “IC50, SKBR-3 cell viability” value in assay [3] stood at 0.37 nM. In addition, in assay [4], the “IC50 … no competitor” value is 1.3 nM and the “IC50 … with 0.6 uM holo-human transferrin” value was found to be 196 nM.
